# Laboratory results as given in IntAct's records for PubMed 31515488.
# B1: Gem-associated protein 6 (Homo sapiens), Q8WXD5 (parent)
# chain: MSEWMKKGPLEWQDYIYKEVRVTASEKNEYKGWVLTTDPVSANIVLVNFLEDGSMSVTGIMGHAVQTVETMNEGDHRVREKLMHLFTSGDCKAYSPEDLEERKNSLKKWLEKNHIPITEQGDAPRTLCVAGVLTIDPPYGPENCSSSNEIILSRVQDLIEGHLTASQ
# B2: Isoform 1 of DNA mismatch repair protein Mlh1 (Homo sapiens), P40692-1 (parent)
# chain: MSFVAGVIRRLDETVVNRIAAGEVIQRPANAIKEMIENCLDAKSTSIQVIVKEGGLKLIQIQDNGTGIRKEDLDIVCERFTTSKLQSFEDLASISTYGFRGEALASISHVAHVTITTKTADGKCAYRASYSDGKLKAPPKPCAGNQGTQITVEDLFYNIATRRKALKNPSEEYGKILEVVGRYSVHNAGISFSVKKQGETVADVRTLPNASTVDNIRSIFGNAVSRELIEIGCEDKTLAFKMNGYISNANYSVKKCIFLLFINHRLVESTSLRKAIETVYAAYLPKNTHPFLYLSLEISPQNVDVNVHPTKHEVHFLHEESILERVQQHIESKLLGSNSSRMYFTQTLLPGLAGPSGEMVKSTTSLTSSSTSGSSDKVYAHQMVRTDSREQKLDAFLQPLSKPLSSQPQAIVTEDKTDISSGRARQQDEEMLELPAPAEVAAKNQSLEGDTTKGTSEMSEKRGPTSSNPRKRHREDSDVEMVEDDSRKEMTAACTPRRRIINLTSVLSLQEEINEQGHEVLREMLHNHSFVGCVNPQWALAQHQTKLYLLNTTKLSEELFYQILIYDFANFGVLRLSEPAPLFDLAMLALDSPESGWTEEDGPKEGLAEYIVEFLKKKAEMLADYFSLEIDEEGNLIGLPLLIDNYVPPLEGLPIFILRLATEVNWDEEKECFESLSKECAMFYSIRKQYISEESTLSGQQSEVPGSIPNSWKWTVEHIVYKALRSHILPPKHFTEDGNILQLANLPDLYKVFERC
# partner: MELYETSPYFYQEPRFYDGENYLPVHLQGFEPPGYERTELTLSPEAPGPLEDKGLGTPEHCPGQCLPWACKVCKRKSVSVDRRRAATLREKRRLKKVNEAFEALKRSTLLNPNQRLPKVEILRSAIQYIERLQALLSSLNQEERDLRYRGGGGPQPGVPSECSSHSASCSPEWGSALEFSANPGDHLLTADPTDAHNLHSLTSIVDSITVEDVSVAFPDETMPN
# B3: Paraneoplastic antigen-like protein 5 (Homo sapiens), Q96PV4 (parent)
# chain: MALTLLEDWCKGMDMDPRKALLIVGIPMECSEVEIQDTVKAGLQPLCAYRVLGRMFRREDNAKAVFIELADTVNYTTLPSHIPGKGGSWEVVVKPRNPDDEFLSRLNYFLKDEGRSMTDVARALGCCSLPAESLDAEVMPQVRSPPLEPPKESMWYRKLKVFSGTASPSPGEETFEDWLEQVTEIMPIWQVSEVEKRRRLLESLRGPALSIMRVLQANNDSITVEQCLDALKQIFGDKEDFRASQFRFLQTSPKIGEKVSTFLLRLEPLLQKAVHKSPLSVRSTDMIRLKHLLARVAMTPALRGKLELLDQRGCPPNFLELMKLIRDEEEWENTEAVMKNKEKPSGRGRGASGRQARAEASVSAPQATVQARSFSDSSPQTIQGGLPPLVKRRRLLGSESTRGEDHGQATYPKAENQTPGREGPQAAGEELGNEAGAGAMSHPKPWET
# partner: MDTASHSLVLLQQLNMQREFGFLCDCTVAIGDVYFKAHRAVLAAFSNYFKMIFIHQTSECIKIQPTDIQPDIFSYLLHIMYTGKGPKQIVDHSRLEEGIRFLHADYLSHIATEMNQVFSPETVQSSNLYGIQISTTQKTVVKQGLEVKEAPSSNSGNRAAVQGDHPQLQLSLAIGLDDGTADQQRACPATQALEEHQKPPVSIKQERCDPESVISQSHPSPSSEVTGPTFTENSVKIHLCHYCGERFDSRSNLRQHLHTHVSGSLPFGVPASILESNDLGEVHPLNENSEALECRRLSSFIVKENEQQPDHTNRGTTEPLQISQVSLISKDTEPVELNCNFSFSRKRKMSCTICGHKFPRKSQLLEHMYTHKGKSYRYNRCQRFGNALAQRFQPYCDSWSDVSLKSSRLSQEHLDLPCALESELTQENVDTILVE
# B4: Vacuolar protein-sorting-associated protein 25 (Homo sapiens), Q9BRG1 (parent)
# chain: MAMSFEWPWQYRFPPFFTLQPNVDTRQKQLAAWCSLVLSFCRLHKQSSMTVMEAQESPLFNNVKLQRKLPVESIQIVLEELRKKGNLEWLDKSKSSFLIMWRRPEEWGKLIYQWVSRSGQNNSVFTLYELTNGEDTEDEEFHGLDEATLLRALQALQQEHKAEIITVSDGRGVKFF
# partner: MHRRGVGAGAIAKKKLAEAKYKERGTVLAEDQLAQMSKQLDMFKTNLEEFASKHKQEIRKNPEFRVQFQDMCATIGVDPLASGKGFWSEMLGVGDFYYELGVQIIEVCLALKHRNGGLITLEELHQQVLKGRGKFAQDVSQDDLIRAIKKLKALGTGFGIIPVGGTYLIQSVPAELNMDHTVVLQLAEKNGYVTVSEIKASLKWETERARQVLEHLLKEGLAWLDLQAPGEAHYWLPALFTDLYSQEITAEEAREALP
# B5: Proteasome subunit beta type-1 (Homo sapiens), P20618 (parent)
# chain: MLSSTAMYSAPGRDLGMEPHRAAGPLQLRFSPYVFNGGTILAIAGEDFAIVASDTRLSEGFSIHTRDSPKCYKLTDKTVIGCSGFHGDCLTLTKIIEARLKMYKHSNNKAMTTGAIAAMLSTILYSRRFFPYYVYNIIGGLDEEGKGAVYSFDPVGSYQRDSFKAGGSASAMLQPLLDNQVGFKNMQNVEHVPLSLDRAMRLVKDVFISAAERDVYTGDALRICIVTKEGIREETVSLRKD
# B6: Angiomotin (Homo sapiens), Q4VCS5 (parent)
# chain: MRNSEEQPSGGTTVLQRLLQEQLRYGNPSENRSLLAIHQQATGNGPPFPSGSGNPGPQSDVLSPQDHHQQLVAHAARQEPQGQEIQSENLIMEKQLSPRMQNNEELPTYEEAKVQSQYFRGQQHASVGAAFYVTGVTNQKMRTEGRPSVQRLNPGKMHQDEGLRDLKQGHVRSLSERLMQMSLATSGVKAHPPVTSAPLSPPQPNDLYKNPTSSSEFYKAQGPLPNQHSLKGMEHRGPPPEYPFKGMPPQSVVCKPQEPGHFYSEHRLNQPGRTEGQLMRYQHPPEYGAARPAQDISLPLSARNSQPHSPTSSLTSGGSLPLLQSPPSTRLSPARHPLVPNQGDHSAHLPRPQQHFLPNQAHQGDHYRLSQPGLSQQQQQQQQQHHHHHHHQQQQQQQPQQQPGEAYSAMPRAQPSSASYQPVPADPFAIVSRAQQMVEILSDENRNLRQELEGCYEKVARLQKVETEIQRVSEAYENLVKSSSKREALEKAMRNKLEGEIRRMHDFNRDLRERLETANKQLAEKEYEGSEDTRKTISQLFAKNKESQREKEKLEAELATARSTNEDQRRHIEIRDQALSNAQAKVVKLEEELKKKQVYVDKVEKMQQALVQLQAACEKREQLEHRLRTRLERELESLRIQQRQGNCQPTNVSEYNAAALMELLREKEERILALEADMTKWEQKYLEENVMRHFALDAAATVAAQRDTTVISHSPNTSYDTALEARIQKEEEEILMANKRCLDMEGRIKTLHAQIIEKDAMIKVLQQRSRKEPSKTEQLSCMRPAKSLMSISNAGSGLLSHSSTLTGSPIMEEKRDDKSWKGSLGILLGGDYRAEYVPSTPSPVPPSTPLLSAHSKTGSRDCSTQTERGTESNKTAAVAPISVPAPVAAAATAAAITATAATITTTMVAAAPVAVAAAAAPAAAAAPSPATAAATAAAVSPAAAGQIPAAASVASAAAVAPSAAAAAAVQVAPAAPAPVPAPALVPVPAPAAAQASAPAQTQAPTSAPAVAPTPAPTPTPAVAQAEVPASPATGPGPHRLSIPSLTCNPDKTDGPVFHSNTLERKTPIQILGQEPDAEMVEYLI
# partner: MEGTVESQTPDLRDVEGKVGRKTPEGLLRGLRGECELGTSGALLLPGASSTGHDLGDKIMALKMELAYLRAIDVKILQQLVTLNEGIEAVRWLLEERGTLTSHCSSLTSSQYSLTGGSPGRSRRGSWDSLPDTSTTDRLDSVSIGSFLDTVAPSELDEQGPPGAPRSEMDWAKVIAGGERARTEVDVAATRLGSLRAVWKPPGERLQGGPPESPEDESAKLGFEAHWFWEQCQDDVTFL
# B7: KH domain-containing, RNA-binding, signal transduction-associated protein 2 (Homo sapiens), Q5VWX1 (parent)
# chain: MEEEKYLPELMAEKDSLDPSFVHASRLLAEEIEKFQGSDGKKEDEEKKYLDVISNKNIKLSERVLIPVKQYPKFNFVGKLLGPRGNSLKRLQEETGAKMSILGKGSMRDKAKEEELRKSGEAKYAHLSDELHVLIEVFAPPGEAYSRMSHALEEIKKFLVPDYNDEIRQEQLRELSYLNGSEDSGRGRGIRGRGIRIAPTAPSRGRGGAIPPPPPPGRGVLTPRGSTVTRGALPVPPVARGVPTPRARGAPTVPGYRAPPPPAHEAYEEYGYDDGYGGEYDDQTYETYDNSYATQTQSVPEYYDYGHGVSEDAYDSYAPEEWATTRSSLKAPPQRSARGGYREHPYGRY
# B8: Kinetochore protein NDC80 homolog (Homo sapiens), O14777 (parent)
# chain: MKRSSVSSGGAGRLSMQELRSQDVNKQGLYTPQTKEKPTFGKLSINKPTSERKVSLFGKRTSGHGSRNSQLGIFSSSEKIKDPRPLNDKAFIQQCIRQLCEFLTENGYAHNVSMKSLQAPSVKDFLKIFTFLYGFLCPSYELPDTKFEEEVPRIFKDLGYPFALSKSSMYTVGAPHTWPHIVAALVWLIDCIKIHTAMKESSPLFDDGQPWGEETEDGIMHNKLFLDYTIKCYESFMSGADSFDEMNAELQSKLKDLFNVDAFKLESLEAKNRALNEQIARLEQEREKEPNRLESLRKLKASLQGDVQKYQAYMSNLESHSAILDQKLNGLNEEIARVELECETIKQENTRLQNIIDNQKYSVADIERINHERNELQQTINKLTKDLEAEQQKLWNEELKYARGKEAIETQLAEYHKLARKLKLIPKGAENSKGYDFEIKFNPEAGANCLVKYRAQVYVPLKELLNETEEEINKALNKKMGLEDTLEQLNAMITESKRSVRTLKEEVQKLDDLYQQKIKEAEEEDEKCASELESLEKHKHLLESTVNQGLSEAMNELDAVQREYQLVVQTTTEERRKVGNNLQRLLEMVATHVGSVEKHLEEQIAKVDREYEECMSEDLSENIKEIRDKYEKKATLIKSSEE
# Variants of: B1
# Conditions: with gemi7_human GEMIN7, Q9H840
# Chain of gemi7_human GEMIN7, Q9H840 (Q9H840 whole entry): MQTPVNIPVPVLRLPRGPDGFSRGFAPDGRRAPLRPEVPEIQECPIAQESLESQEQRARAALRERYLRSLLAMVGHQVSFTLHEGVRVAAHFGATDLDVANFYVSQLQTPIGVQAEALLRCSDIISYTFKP
row,effect of a mutation on the interaction,Variant
1,with no effect,S25N

# Variants of: B2
# Conditions: with myog_human MYOG
row,effect of a mutation on the interaction,Variant
1,with no effect,R69K

# Variants of: B2
# Conditions: with myog_human MYOG
# Remark: another data set of the same source
row,effect of a mutation on the interaction,Variant
1,with no effect,V384D
2,with no effect,A441T
3,with no effect,S406N

# The next lines start with the variant.
row,Variant,effect of a mutation on the interaction
1,S106N,with no effect
2,V213M,with no effect
3,V326A,with no effect

# Variants of: B3
# Conditions: with zbt25_human ZBTB25, P24278
row,effect of a mutation on the interaction,Variant
1,with no effect,T261A
2,with no effect,R312Q
3,with no effect,V274M
4,disrupting interaction strength,L21Q

# Variants of: B4
# Conditions: with snf8_human SNF8, Q96H20
row,effect of a mutation on the interaction,Variant
1,with no effect,I76V

# Variants of: B5
# Conditions: with KRT15, P19012
# Chain of KRT15, P19012 (P19012 whole entry): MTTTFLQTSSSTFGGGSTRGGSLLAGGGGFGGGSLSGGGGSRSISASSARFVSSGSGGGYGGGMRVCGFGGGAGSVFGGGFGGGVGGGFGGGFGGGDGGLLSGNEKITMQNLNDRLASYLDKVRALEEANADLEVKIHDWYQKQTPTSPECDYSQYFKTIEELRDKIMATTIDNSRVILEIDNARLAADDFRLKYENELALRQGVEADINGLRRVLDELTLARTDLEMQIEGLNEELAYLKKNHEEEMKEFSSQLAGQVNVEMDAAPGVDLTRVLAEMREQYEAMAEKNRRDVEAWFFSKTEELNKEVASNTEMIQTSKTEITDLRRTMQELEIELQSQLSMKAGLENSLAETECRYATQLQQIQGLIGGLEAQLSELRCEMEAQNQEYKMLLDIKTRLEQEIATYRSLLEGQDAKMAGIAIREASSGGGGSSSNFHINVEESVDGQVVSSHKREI
row,effect of a mutation on the interaction,Variant
1,with no effect,P11A

# Variants of: B5
# Conditions: with traf1_human TRAF1, Q13077
# Chain of traf1_human TRAF1, Q13077 (Q13077 whole entry): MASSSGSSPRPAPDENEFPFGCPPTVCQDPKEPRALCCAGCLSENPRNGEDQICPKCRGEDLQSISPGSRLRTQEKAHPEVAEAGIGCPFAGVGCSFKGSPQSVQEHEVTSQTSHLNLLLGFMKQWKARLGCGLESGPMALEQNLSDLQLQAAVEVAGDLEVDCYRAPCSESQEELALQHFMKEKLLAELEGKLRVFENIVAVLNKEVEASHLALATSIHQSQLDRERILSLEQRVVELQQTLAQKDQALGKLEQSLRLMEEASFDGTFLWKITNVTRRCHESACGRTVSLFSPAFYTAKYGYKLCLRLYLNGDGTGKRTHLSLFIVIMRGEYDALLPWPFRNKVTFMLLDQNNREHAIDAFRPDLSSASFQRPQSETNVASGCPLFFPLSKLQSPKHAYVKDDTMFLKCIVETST
row,effect of a mutation on the interaction,Variant
1,with no effect,P11A

# Variants of: B6
# Conditions: with lura1_human LURAP1, Q96LR2
row,effect of a mutation on the interaction,Variant
1,with no effect,T899A

# Variants of: B7
# Conditions: with ews_human EWSR1, Q01844
# Chain of ews_human EWSR1, Q01844 (Q01844 whole entry): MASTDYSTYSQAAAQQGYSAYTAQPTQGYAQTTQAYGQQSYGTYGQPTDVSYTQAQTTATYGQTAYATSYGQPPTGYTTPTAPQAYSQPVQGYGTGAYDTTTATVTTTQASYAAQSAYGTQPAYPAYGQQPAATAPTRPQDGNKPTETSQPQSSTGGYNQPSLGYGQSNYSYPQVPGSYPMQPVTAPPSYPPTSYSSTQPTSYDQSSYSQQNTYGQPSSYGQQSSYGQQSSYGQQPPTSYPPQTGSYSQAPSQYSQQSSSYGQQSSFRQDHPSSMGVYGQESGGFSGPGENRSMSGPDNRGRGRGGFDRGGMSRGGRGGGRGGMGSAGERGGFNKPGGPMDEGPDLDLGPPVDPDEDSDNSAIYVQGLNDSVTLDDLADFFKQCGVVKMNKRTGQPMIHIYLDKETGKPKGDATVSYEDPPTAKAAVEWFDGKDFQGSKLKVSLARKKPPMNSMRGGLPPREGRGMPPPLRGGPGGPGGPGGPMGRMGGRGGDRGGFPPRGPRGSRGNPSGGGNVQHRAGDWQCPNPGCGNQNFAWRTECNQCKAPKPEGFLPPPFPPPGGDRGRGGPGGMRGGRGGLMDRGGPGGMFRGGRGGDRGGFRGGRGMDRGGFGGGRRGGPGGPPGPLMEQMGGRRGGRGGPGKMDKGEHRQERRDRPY
row,effect of a mutation on the interaction,Variant
1,with no effect,P333L

# Variants of: B7
# Conditions: with ptk6_human PTK6, Q13882
row,effect of a mutation on the interaction,Variant
1,with no effect,P333L

# Variants of: B7
# Conditions: with hbaz_human HBZ
row,effect of a mutation on the interaction,Variant
1,with no effect,P333L

# Variants of: B8
# Conditions: with amol2_human AMOTL2, Q9Y2J4
# Chain of amol2_human AMOTL2, Q9Y2J4 (Q9Y2J4 whole entry): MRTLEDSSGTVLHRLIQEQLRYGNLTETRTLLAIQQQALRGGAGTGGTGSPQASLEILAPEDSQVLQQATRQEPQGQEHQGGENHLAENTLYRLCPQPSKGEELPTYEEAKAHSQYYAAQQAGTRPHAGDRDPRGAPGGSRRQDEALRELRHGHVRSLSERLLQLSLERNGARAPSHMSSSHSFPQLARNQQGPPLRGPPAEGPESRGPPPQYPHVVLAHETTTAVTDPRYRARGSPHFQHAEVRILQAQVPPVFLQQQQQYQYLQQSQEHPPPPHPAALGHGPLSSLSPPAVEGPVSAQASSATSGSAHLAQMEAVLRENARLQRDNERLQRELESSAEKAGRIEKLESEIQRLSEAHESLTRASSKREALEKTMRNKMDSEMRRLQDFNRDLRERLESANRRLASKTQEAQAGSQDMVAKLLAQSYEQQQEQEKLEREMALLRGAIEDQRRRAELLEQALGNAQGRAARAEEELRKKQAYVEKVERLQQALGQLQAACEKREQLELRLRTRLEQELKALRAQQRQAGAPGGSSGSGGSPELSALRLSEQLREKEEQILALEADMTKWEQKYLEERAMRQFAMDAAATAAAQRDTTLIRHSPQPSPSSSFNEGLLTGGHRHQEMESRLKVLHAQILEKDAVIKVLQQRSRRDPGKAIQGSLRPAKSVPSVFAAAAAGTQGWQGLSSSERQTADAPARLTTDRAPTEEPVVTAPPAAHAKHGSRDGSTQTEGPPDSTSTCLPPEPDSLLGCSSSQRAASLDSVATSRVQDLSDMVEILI
row,effect of a mutation on the interaction,Variant
1,with no effect,A605P
2,with no effect,E348D

# Variants of: B8
# Conditions: with txlna_human TXLNA
row,effect of a mutation on the interaction,Variant
1,with no effect,A605P
2,with no effect,E348D

# Variants of: B8
# Conditions: with atf4_human ATF4, P18848
# Chain of atf4_human ATF4, P18848 (P18848 whole entry): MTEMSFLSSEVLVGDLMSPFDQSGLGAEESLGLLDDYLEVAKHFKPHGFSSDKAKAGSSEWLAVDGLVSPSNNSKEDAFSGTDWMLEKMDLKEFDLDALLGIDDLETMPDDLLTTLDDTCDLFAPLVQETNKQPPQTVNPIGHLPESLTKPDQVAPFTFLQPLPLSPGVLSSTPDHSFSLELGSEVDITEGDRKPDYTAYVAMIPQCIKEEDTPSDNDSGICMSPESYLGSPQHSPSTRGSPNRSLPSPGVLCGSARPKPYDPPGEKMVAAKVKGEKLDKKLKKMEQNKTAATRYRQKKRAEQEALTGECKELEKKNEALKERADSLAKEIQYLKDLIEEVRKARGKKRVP
row,effect of a mutation on the interaction,Variant
1,disrupting interaction strength,A605P
2,with no effect,E348D

# Variants of: B8
# Conditions: with tnip1_human TNIP1, Q15025
# Chain of tnip1_human TNIP1, Q15025 (Q15025 whole entry): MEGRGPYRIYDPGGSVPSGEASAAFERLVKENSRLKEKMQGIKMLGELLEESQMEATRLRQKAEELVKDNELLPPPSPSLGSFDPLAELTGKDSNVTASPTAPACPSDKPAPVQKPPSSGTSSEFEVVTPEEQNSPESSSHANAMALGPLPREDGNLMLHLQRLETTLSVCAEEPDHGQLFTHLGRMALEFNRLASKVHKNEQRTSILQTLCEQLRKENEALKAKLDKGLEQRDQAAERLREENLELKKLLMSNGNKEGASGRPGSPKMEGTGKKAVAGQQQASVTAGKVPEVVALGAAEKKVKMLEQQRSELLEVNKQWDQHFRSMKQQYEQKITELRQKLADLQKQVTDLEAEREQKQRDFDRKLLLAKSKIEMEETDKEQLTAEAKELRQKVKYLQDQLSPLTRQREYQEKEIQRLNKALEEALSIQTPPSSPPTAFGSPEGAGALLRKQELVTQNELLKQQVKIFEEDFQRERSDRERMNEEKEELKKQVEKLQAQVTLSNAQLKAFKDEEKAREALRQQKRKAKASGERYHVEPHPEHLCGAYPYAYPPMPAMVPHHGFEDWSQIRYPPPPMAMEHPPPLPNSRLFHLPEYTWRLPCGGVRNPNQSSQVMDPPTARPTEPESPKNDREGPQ
row,effect of a mutation on the interaction,Variant
1,disrupting interaction strength,A605P
2,with no effect,E348D
